Experimental data: publication PMC8373069
Each block holds one substance with its values, some of them ahead of it.

Assays:
[1] = biological target: T1, MUTYH (His tag cleaved) (mouse) (UniProt Q99P21); assay: EMSA; settings: 20 nM MUTYH, 8 nM DNA, no UV-DDB; strand 1 position 21 = 8-oxoG (written G); strand 2 position 17 = tetrahydrofuran abasic analogue (written N), opposite the 8-oxoG; EMSA: 20 mM HEPES pH 7.5, 150 mM NaCl, 5 mM DTT, 0.5 mg/ml BSA, 5% glycerol, RT; 5% native gel in 1/2x TBE at 4 C
T1 sequence: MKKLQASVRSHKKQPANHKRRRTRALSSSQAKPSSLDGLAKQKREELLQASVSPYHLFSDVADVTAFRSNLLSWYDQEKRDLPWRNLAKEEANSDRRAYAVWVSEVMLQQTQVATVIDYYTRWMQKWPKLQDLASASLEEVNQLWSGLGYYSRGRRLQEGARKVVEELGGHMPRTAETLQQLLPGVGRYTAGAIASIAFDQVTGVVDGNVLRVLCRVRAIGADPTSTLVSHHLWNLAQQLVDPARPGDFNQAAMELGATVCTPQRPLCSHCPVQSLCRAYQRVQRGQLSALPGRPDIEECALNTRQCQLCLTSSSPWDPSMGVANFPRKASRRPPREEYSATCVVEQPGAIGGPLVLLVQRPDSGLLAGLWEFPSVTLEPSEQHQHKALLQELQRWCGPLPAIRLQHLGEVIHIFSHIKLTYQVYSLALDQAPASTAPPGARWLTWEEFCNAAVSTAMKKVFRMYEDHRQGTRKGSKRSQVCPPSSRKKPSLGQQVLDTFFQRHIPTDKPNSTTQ

His6-MUTYH (mouse) = assay: single-molecule DNA tightrope; settings: one tetrahydrofuran abasic site every 2 kb, EMSA: 20 mM HEPES pH 7.5, 150 mM NaCl, 5 mM DTT, 0.5 mg/ml BSA, 5% glycerol, RT, 5% native gel in 1/2x TBE at 4 C
[2] = biological target: mouse MUTYH, hexa-histidine tag cleaved with thrombin (mouse) (UniProt Q99P21)

Substance: CCGAGTCATTCCTGCAGCGAGTCCATGGGAGTCAAAT / ATTTGACTCCCATGGANTCGCTGCAGGAATGACTCGG [THF8-oxoG37]
binding signal [1]: > 80 % DNA bound

Substance: THF array (tightrope DNA)
binding signal (s (half-life on abasic sites)) (His6-MUTYH (mouse); with UV-DDB, which promotes MUTYH dissociation): 590
binding signal (s (half-life on abasic sites)) (His6-MUTYH (mouse); without UV-DDB): 8800

MUTYH (20 nM) excision of A opposite 8-oxoG in 50 nM 37 bp duplex, with 50 nM UV-DDB against without, up to 4 h at 37°C [2]: 4 to 5 fold
Substance: UV-DDB (DDB1–DDB2 heterodimer) (from UniProt Q16531 1-1140; Q92466 1-427) (complex)
